Assay [1] concerns the target T1, human FcγRIIb extracellular domain with C-terminal His tag (human, UniProt P31994 43-217).
T1 sequence (looked up): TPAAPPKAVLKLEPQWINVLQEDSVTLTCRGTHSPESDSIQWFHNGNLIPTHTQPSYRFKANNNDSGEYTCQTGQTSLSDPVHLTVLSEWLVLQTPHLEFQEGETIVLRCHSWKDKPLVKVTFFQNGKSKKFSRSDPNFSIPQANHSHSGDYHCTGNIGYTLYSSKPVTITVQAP
Nature of the assay: SPR.

Assay [2] concerns the target T1, human FcγRIIb extracellular domain with …. Kind of assay: SPR. This is another data set of the same source.

B1: BP504 (antibody, human IgG1, kappa)
heavy: QVQLQESGPGLVKPSETLSLTCAVSGHSISHDHAWSWVRQPPGEGLEWIGFISYSGITNYNPSLQGRVTISRDNSKNTLYLQMNSLRAEDTAVYYCARSLARTTAMDYWGEGTLVTVSSASTKGPSVFPLAPSSKSTSGGTAALGCLVKDYFPEPVTVSWNSGALTSGVHTFPAVLQSSGLYSLSSVVTVPSSSLGTQTYICNVNHKPSNTKVDKKVEPKSCDKTHTCPPCPAPDLLGDDSVFLFPPKPKDTLMISRTPEVTCVVIDVAEEDGPVKFNWYVDGVEVHNAKTKPREEQYNSTYRVVSVLTVLHQDWLNGKEYKCKVSNKALPAPIEKTISKAKGQPREPQVYTLPPSRDELTKNQVSLTCLVKGFYPSDIAVEWESNGQPENNYKTTPPVLDSDGSFFLYSKLTVDKSRWQQGNVFSCSVMHEALHNHYTQESLSLSP
light: not shown
Take B1: in assay [1], the “KD (IIaH)/KD (IIb)” value was 658. The “KD (IIaR)/KD (IIb)” value in assay [2] is 18.5.

B2: BP563 (antibody, human IgG1, kappa)
heavy: QVQLQESGPGLVKPSETLSLTCAVSGHSISHDHAWSWVRQPPGEGLEWIGFISYSGITNYNPSLQGRVTISRDNSKNTLYLQMNSLRAEDTAVYYCARSLARTTAMDYWGEGTLVTVSSASTKGPSVFPLAPSSKSTSGGTAALGCLVKDYFPEPVTVSWNSGALTSGVHTFPAVLQSSGLYSLSSVVTVPSSSLGTQTYICNVNHKPSNTKVDKKVEPKSCDKTHTCPPCPAPDLLGDDSVFLFPPKPKDTLMISRTPEVTCVVVDVSEEDGDVKFNWYVDGVEVHNAKTKPREEQDNSTYRVVSVLTVLHQDWLNGKEYKCKVSNKALPRPIEKTISKAKGQPREPQVYTLPPSRDELTKNQVSLTCLVKGFYPSDIAVEWESNGQPENNYKTTPPVLDSDGSFFLYSKLTVDKSRWQQGNVFSCSVMHEALHNHYTQESLSLSP
light: not shown
Turning to B2, the “KD (IIaH)/KD (IIb)” value in assay [1] was 525. Moreover, in assay [2], the “KD (IIaR)/KD (IIb)” value was 29.1.

B3: IL6R-BP511/IL6R-L (antibody, human IgG1, kappa)
heavy: QVQLQESGPGLVKPSETLSLTCAVSGHSISHDHAWSWVRQPPGEGLEWIGFISYSGITNYNPSLQGRVTISRDNSKNTLYLQMNSLRAEDTAVYYCARSLARTTAMDYWGEGTLVTVSSASTKGPSVFPLAPSSKSTSGGTAALGCLVKDYFPEPVTVSWNSGALTSGVHTFPAVLQSSGLYSLSSVVTVPSSSLGTQTYICNVNHKPSNTKVDKKVEPKSCDKTHTCPPCPAPELLGDDSVFLFPPKPKDTLMISRTPEVTCVVIDVAEEDGPVKFNWYVDGVEVHNAKTKPREEQDNSTYRVVSVLTVLHQDWLNGKEYKCKVSNKALPRPIEKTISKAKGQPREPQVYTLPPSRDELTKNQVSLTCLVKGFYPSDIAVEWESNGQPENNYKTTPPVLDSDGSFFLYSKLTVDKSRWQQGNVFSCSVMHEALHNHYTQESLSLSP
light: not shown
B3: the “KD (IIaH)/KD (IIb)” value in assay [1] is 1240. The “KD (IIaR)/KD (IIb)” value in assay [2] is 50.6.

B4: BP560 (antibody, human IgG1, kappa)
heavy: QVQLQESGPGLVKPSETLSLTCAVSGHSISHDHAWSWVRQPPGEGLEWIGFISYSGITNYNPSLQGRVTISRDNSKNTLYLQMNSLRAEDTAVYYCARSLARTTAMDYWGEGTLVTVSSASTKGPSVFPLAPSSKSTSGGTAALGCLVKDYFPEPVTVSWNSGALTSGVHTFPAVLQSSGLYSLSSVVTVPSSSLGTQTYICNVNHKPSNTKVDKKVEPKSCDKTHTCPPCPAPELLGGDSVFLFPPKPKDTLMISRTPEVTCVVVDVGEEDGEVKFNWYVDGVEVHNAKTKPREEQDNSTYRVVSVLTVLHQDWLNGKEYKCKVSNKALPRPIEKTISKAKGQPREPQVYTLPPSRDELTKNQVSLTCLVKGFYPSDIAVEWESNGQPENNYKTTPPVLDSDGSFFLYSKLTVDKSRWQQGNVFSCSVMHEALHNHYTQESLSLSP
light: not shown
As to B4, the “KD (IIaH)/KD (IIb)” value in assay [1] turned out to be 168. Also, the “KD (IIaR)/KD (IIb)” value in assay [2] was determined as 22.8.

B5: BP562 (antibody, human IgG1, kappa)
heavy: QVQLQESGPGLVKPSETLSLTCAVSGHSISHDHAWSWVRQPPGEGLEWIGFISYSGITNYNPSLQGRVTISRDNSKNTLYLQMNSLRAEDTAVYYCARSLARTTAMDYWGEGTLVTVSSASTKGPSVFPLAPSSKSTSGGTAALGCLVKDYFPEPVTVSWNSGALTSGVHTFPAVLQSSGLYSLSSVVTVPSSSLGTQTYICNVNHKPSNTKVDKKVEPKSCDKTHTCPPCPAPELLGDDSVFLFPPKPKDTLMISRTPEVTCVVVDVSDEDGDVKFNWYVDGVEVHNAKTKPREEQDNSTYRVVSVLTVLHQDWLNGKEYKCKVSNKALPRPIEKTISKAKGQPREPQVYTLPPSRDELTKNQVSLTCLVKGFYPSDIAVEWESNGQPENNYKTTPPVLDSDGSFFLYSKLTVDKSRWQQGNVFSCSVMHEALHNHYTQESLSLSP
light: not shown
With B5, in assay [1], the “KD (IIaH)/KD (IIb)” value is 466. Besides, the “KD (IIaR)/KD (IIb)” value in assay [2] is 20.

B6: IL6R-BP502/IL6R-L (antibody, human IgG1, kappa)
heavy: QVQLQESGPGLVKPSETLSLTCAVSGHSISHDHAWSWVRQPPGEGLEWIGFISYSGITNYNPSLQGRVTISRDNSKNTLYLQMNSLRAEDTAVYYCARSLARTTAMDYWGEGTLVTVSSASTKGPSVFPLAPSSKSTSGGTAALGCLVKDYFPEPVTVSWNSGALTSGVHTFPAVLQSSGLYSLSSVVTVPSSSLGTQTYICNVNHKPSNTKVDKKVEPKSCDKTHTCPPCPAPDLLGDDSVFLFPPKPKDTLMISRTPEVTCVVIDVAEEDGEVKFNWYVDGVEVHNAKTKPREEQDNSTYRVVSVLTVLHQDWLNGKEYKCKVSNKGLPRPIEKTISKAKGQPREPQVYTLPPSRDELTKNQVSLTCLVKGFYPSDIAVEWESNGQPENNYKTTPPVLDSDGSFFLYSKLTVDKSRWQQGNVFSCSVMHEALHNHYTQESLSLSP
light: not shown
As to B6, the “KD (IIaH)/KD (IIb)” value in assay [1] came out at 352. Besides, the “KD (IIaR)/KD (IIb)” value in assay [2] came out at 28.5.

B7: BP508 (antibody, human IgG1, kappa)
heavy: QVQLQESGPGLVKPSETLSLTCAVSGHSISHDHAWSWVRQPPGEGLEWIGFISYSGITNYNPSLQGRVTISRDNSKNTLYLQMNSLRAEDTAVYYCARSLARTTAMDYWGEGTLVTVSSASTKGPSVFPLAPSSKSTSGGTAALGCLVKDYFPEPVTVSWNSGALTSGVHTFPAVLQSSGLYSLSSVVTVPSSSLGTQTYICNVNHKPSNTKVDKKVEPKSCDKTHTCPPCPAPDLLGDDSVFLFPPKPKDTLMISRTPEVTCVVIDVAEEDGPVKFNWYVDGVEVHNAKTKPREEQDNSTYRVVSVLTVLHQDWLNGKEYKCKVSNKALPAPIEKTISKAKGQPREPQVYTLPPSRDELTKNQVSLTCLVKGFYPSDIAVEWESNGQPENNYKTTPPVLDSDGSFFLYSKLTVDKSRWQQGNVFSCSVMHEALHNHYTQESLSLSP
light: not shown
For the molecule B7, the “KD (IIaH)/KD (IIb)” value in assay [1] came to 962. Moreover, the “KD (IIaR)/KD (IIb)” value in assay [2] was found to be 26.

B8: BP509 (antibody, human IgG1, kappa)
heavy: QVQLQESGPGLVKPSETLSLTCAVSGHSISHDHAWSWVRQPPGEGLEWIGFISYSGITNYNPSLQGRVTISRDNSKNTLYLQMNSLRAEDTAVYYCARSLARTTAMDYWGEGTLVTVSSASTKGPSVFPLAPSSKSTSGGTAALGCLVKDYFPEPVTVSWNSGALTSGVHTFPAVLQSSGLYSLSSVVTVPSSSLGTQTYICNVNHKPSNTKVDKKVEPKSCDKTHTCPPCPAPDLLGDDSVFLFPPKPKDTLMISRTPEVTCVVIDVAEEDGDVKFNWYVDGVEVHNAKTKPREEQDNSTYRVVSVLTVLHQDWLNGKEYKCKVSNKALPAPIEKTISKAKGQPREPQVYTLPPSRDELTKNQVSLTCLVKGFYPSDIAVEWESNGQPENNYKTTPPVLDSDGSFFLYSKLTVDKSRWQQGNVFSCSVMHEALHNHYTQESLSLSP
light: not shown
As to B8, the “KD (IIaH)/KD (IIb)” value in assay [1] was determined as 444. Also, the “KD (IIaR)/KD (IIb)” value in assay [2] amounted to 29.2.

B9: IL6R-BP500/IL6R-L (antibody, human IgG1, kappa)
heavy: QVQLQESGPGLVKPSETLSLTCAVSGHSISHDHAWSWVRQPPGEGLEWIGFISYSGITNYNPSLQGRVTISRDNSKNTLYLQMNSLRAEDTAVYYCARSLARTTAMDYWGEGTLVTVSSASTKGPSVFPLAPSSKSTSGGTAALGCLVKDYFPEPVTVSWNSGALTSGVHTFPAVLQSSGLYSLSSVVTVPSSSLGTQTYICNVNHKPSNTKVDKKVEPKSCDKTHTCPPCPAPELLGDDSVFLFPPKPKDTLMISRTPEVTCVVIDVAEEDGEVKFNWYVDGVEVHNAKTKPREEQDNSTYRVVSVLTVLHQDWLNGKEYKCKVSNKALPAPIEKTISKAKGQPREPQVYTLPPSRDELTKNQVSLTCLVKGFYPSDIAVEWESNGQPENNYKTTPPVLDSDGSFFLYSKLTVDKSRWQQGNVFSCSVMHEALHNHYTQESLSLSP
light: not shown
Regarding B9, the “KD (IIaH)/KD (IIb)” value in assay [1] is 1030. The “KD (IIaR)/KD (IIb)” value in assay [2] was 28.9.

B10: IL6R-BP503/IL6R-L (antibody, human IgG1, kappa)
heavy: QVQLQESGPGLVKPSETLSLTCAVSGHSISHDHAWSWVRQPPGEGLEWIGFISYSGITNYNPSLQGRVTISRDNSKNTLYLQMNSLRAEDTAVYYCARSLARTTAMDYWGEGTLVTVSSASTKGPSVFPLAPSSKSTSGGTAALGCLVKDYFPEPVTVSWNSGALTSGVHTFPAVLQSSGLYSLSSVVTVPSSSLGTQTYICNVNHKPSNTKVDKKVEPKSCDKTHTCPPCPAPDLLGDDSVFLFPPKPKDTLMISRTPEVTCVVIDVAEEDGEVKFNWYVDGVEVHNAKTKPREEQDNSTYRVVSVLTVLHQDWLNGKEYKCKVSNKGLPRPIEKTISKAKGQPREPQVYTLPPSRDELTKNQVSLTCLVKGFYPSDIAVEWESNGQPENNYKTTPMVLDSDGSFFLYSKLTVDKSRWQQGNVFSCSVMHEALHNHYTQESLSLSP
light: not shown
With B10, the “KD (IIaH)/KD (IIb)” value in assay [1] stood at 503. For the same molecule, in assay [2], the “KD (IIaR)/KD (IIb)” value is 33.2.

B11: IL6R-BP533/IL6R-L (antibody, human IgG1, kappa)
heavy: QVQLQESGPGLVKPSETLSLTCAVSGHSISHDHAWSWVRQPPGEGLEWIGFISYSGITNYNPSLQGRVTISRDNSKNTLYLQMNSLRAEDTAVYYCARSLARTTAMDYWGEGTLVTVSSASTKGPSVFPLAPSSKSTSGGTAALGCLVKDYFPEPVTVSWNSGALTSGVHTFPAVLQSSGLYSLSSVVTVPSSSLGTQTYICNVNHKPSNTKVDKKVEPKSCDKTHTCPPCPAPDLLGDDSVFLFPPKPKDTLMISRTPEVTCVVIDVGEEDGEVKFNWYVDGVEVHNAKTKPREEQDNSTYRVVSVLTVLHQDWLNGKEYKCKVSNKALPRPIEKTISKAKGQPREPQVYTLPPSRDELTKNQVSLTCLVKGFYPSDIAVEWESNGQPENNYKTTPLVLDSDGSFFLYSKLTVDKSRWQQGNVFSCSVMHEALHNHYTQESLSLSP
light: not shown
With B11, in assay [1], the “KD (IIaH)/KD (IIb)” value was 684. Besides, the “KD (IIaR)/KD (IIb)” value in assay [2] stood at 28.3.

These data come from patent US20230140797A1 (published 2023).
